Results from the supplement of paper PMC10567573.

B1: IKZF1 (parent)
chain: HIKLHSGEKPFKCHLCNYACRRRD

Variants of: B1
Assay: protein stability index of a GFP-peptide fusion (GPS, HEK-293T) (PSI 1-6); higher = more stable
Conditions: c terminus: a fixed tail appended
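Note: lentivirally expressed fusions sorted by FACS into six bins by GFP to DsRed ratio, PSI derived from sequencing read proportions per bin multiplied by bin number.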

Variant	protein stability index
HIKLYSGEKPFKCHLCNYACRRRD	2.45
HIKLCSGEKPFKCHLCNYACRRRD	2.77
HIKLISGEKPFKCHLCNYACRRRD	2.57
HIKLTSGEKPFKCHLCNYACRRRD	1.48
HIKLESGEKPFKCHLCNYACRRRD	2.37
HIKLGSGEKPFKCHLCNYACRRRD	2.45
HIKLASGEKPFKCHLCNYACRRRD	3.14
HIKLPSGEKPFKCHLCNYACRRRD	1.94
HIKLKSGEKPFKCHLCNYACRRRD	2.27
HIKLVSGEKPFKCHLCNYACRRRD	1.78
HIKLMSGEKPFKCHLCNYACRRRD	2.06
HIKLLSGEKPFKCHLCNYACRRRD	1.7
HIKLWSGEKPFKCHLCNYACRRRD	1.8
HIKLQSGEKPFKCHLCNYACRRRD	1.78
HIKLFSGEKPFKCHLCNYACRRRD	1.97
HIKLRSGEKPFKCHLCNYACRRRD	1.55
HIKLSSGEKPFKCHLCNYACRRRD	1.18
HIKLNSGEKPFKCHLCNYACRRRD	2.13
HIKLDSGEKPFKCHLCNYACRRRD	2.12
QIKLHSGEKPFKCHLCNYACRRRD	1.26
FIKLHSGEKPFKCHLCNYACRRRD	2.4
MIKLHSGEKPFKCHLCNYACRRRD	1.81
KIKLHSGEKPFKCHLCNYACRRRD	2.09
TIKLHSGEKPFKCHLCNYACRRRD	1.17

Variant	protein stability index
GIKLHSGEKPFKCHLCNYACRRRD	2
VIKLHSGEKPFKCHLCNYACRRRD	1.72
DIKLHSGEKPFKCHLCNYACRRRD	1.59
PIKLHSGEKPFKCHLCNYACRRRD	2.3
NIKLHSGEKPFKCHLCNYACRRRD	2.73
LIKLHSGEKPFKCHLCNYACRRRD	2.04
EIKLHSGEKPFKCHLCNYACRRRD	2.21
RIKLHSGEKPFKCHLCNYACRRRD	2.13
YIKLHSGEKPFKCHLCNYACRRRD	1.95
AIKLHSGEKPFKCHLCNYACRRRD	1.05
IIKLHSGEKPFKCHLCNYACRRRD	1.5
WIKLHSGEKPFKCHLCNYACRRRD	1.93
CIKLHSGEKPFKCHLCNYACRRRD	1.83
HIKGHSGEKPFKCHLCNYACRRRD	2.21
HIKDHSGEKPFKCHLCNYACRRRD	2.4
HIKSHSGEKPFKCHLCNYACRRRD	2.84
HIKQHSGEKPFKCHLCNYACRRRD	4.68
HIKYHSGEKPFKCHLCNYACRRRD	2.52
HIKIHSGEKPFKCHLCNYACRRRD	1.72
HIKCHSGEKPFKCHLCNYACRRRD	2.33
HIKFHSGEKPFKCHLCNYACRRRD	1.92
HIKTHSGEKPFKCHLCNYACRRRD	1.63
HIKRHSGEKPFKCHLCNYACRRRD	2.48
HIKEHSGEKPFKCHLCNYACRRRD	3.72

Variant	protein stability index
HIKHHSGEKPFKCHLCNYACRRRD	4.08
HIKVHSGEKPFKCHLCNYACRRRD	1.31
HIKKHSGEKPFKCHLCNYACRRRD	4.07
HIKAHSGEKPFKCHLCNYACRRRD	1.99
HIKNHSGEKPFKCHLCNYACRRRD	1.87
HIKPHSGEKPFKCHLCNYACRRRD	2.19
HIKMHSGEKPFKCHLCNYACRRRD	1.58
HIKLHSGNKPFKCHLCNYACRRRD	1.25
HIKLHSGIKPFKCHLCNYACRRRD	1.74
HIKLHSGYKPFKCHLCNYACRRRD	2.06
HIKLHSGAKPFKCHLCNYACRRRD	1.92
HIKLHSGVKPFKCHLCNYACRRRD	2.13
HIKLHSGWKPFKCHLCNYACRRRD	2.28
HIKLHSGQKPFKCHLCNYACRRRD	1.56
HIKLHSGTKPFKCHLCNYACRRRD	1.59
HIKLHSGPKPFKCHLCNYACRRRD	2.17
HIKLHSGLKPFKCHLCNYACRRRD	1.79
HIKLHSGMKPFKCHLCNYACRRRD	1.63
HIKLHSGSKPFKCHLCNYACRRRD	2.22
HIKLHSGKKPFKCHLCNYACRRRD	1.5
HIKLHSGHKPFKCHLCNYACRRRD	1.93
HIKLHSGFKPFKCHLCNYACRRRD	1.72
HIKLHSGRKPFKCHLCNYACRRRD	1.33
HIKLHSGDKPFKCHLCNYACRRRD	1.72

Variant	protein stability index
HIKLHSGCKPFKCHLCNYACRRRD	1.97
HIKLHSGGKPFKCHLCNYACRRRD	2.85
HIKLHSGEPPFKCHLCNYACRRRD	1.9
HIKLHSGENPFKCHLCNYACRRRD	1.79
HIKLHSGEQPFKCHLCNYACRRRD	1.88
HIKLHSGETPFKCHLCNYACRRRD	1.42
HIKLHSGERPFKCHLCNYACRRRD	1.81
HIKLHSGEFPFKCHLCNYACRRRD	1.97
HIKLHSGEHPFKCHLCNYACRRRD	3.3
HIKLHSGEYPFKCHLCNYACRRRD	1.58
HIKLHSGELPFKCHLCNYACRRRD	1.86
HIKLHSGEGPFKCHLCNYACRRRD	2.12
HIKLHSGEWPFKCHLCNYACRRRD	1.26
HIKLHSGEMPFKCHLCNYACRRRD	2.1
HIKLHSGEEPFKCHLCNYACRRRD	2.02
HIKLHSGECPFKCHLCNYACRRRD	2.79
HIKLHSGESPFKCHLCNYACRRRD	2.17
HIKLHSGEAPFKCHLCNYACRRRD	2.11
HIKLHSGEVPFKCHLCNYACRRRD	1.43
HIKLHSGEIPFKCHLCNYACRRRD	2.23
HIKLHSGEDPFKCHLCNYACRRRD	2.8
HIKLHSCEKPFKCHLCNYACRRRD	2.58
HIKLHSMEKPFKCHLCNYACRRRD	1.78
HIKLHSHEKPFKCHLCNYACRRRD	1.97

Variant	protein stability index
HIKLHSKEKPFKCHLCNYACRRRD	2.47
HIKLHSREKPFKCHLCNYACRRRD	2.08
HIKLHSNEKPFKCHLCNYACRRRD	1.18
HIKLHSYEKPFKCHLCNYACRRRD	2.25
HIKLHSDEKPFKCHLCNYACRRRD	2.25
HIKLHSWEKPFKCHLCNYACRRRD	2
HIKLHSIEKPFKCHLCNYACRRRD	1.68
HIKLHSPEKPFKCHLCNYACRRRD	2.19
HIKLHSTEKPFKCHLCNYACRRRD	1.15
HIKLHSQEKPFKCHLCNYACRRRD	2.16
HIKLHSVEKPFKCHLCNYACRRRD	3.09
HIKLHSSEKPFKCHLCNYACRRRD	1.63
HIKLHSLEKPFKCHLCNYACRRRD	1.73
HIKLHSEEKPFKCHLCNYACRRRD	2.62
HIKLHSFEKPFKCHLCNYACRRRD	2.21
HIKLHSAEKPFKCHLCNYACRRRD	2.2
HEKLHSGEKPFKCHLCNYACRRRD	1.78
HYKLHSGEKPFKCHLCNYACRRRD	1.93
HNKLHSGEKPFKCHLCNYACRRRD	2.14
HMKLHSGEKPFKCHLCNYACRRRD	2.6
HPKLHSGEKPFKCHLCNYACRRRD	2.13
HGKLHSGEKPFKCHLCNYACRRRD	2.29
HLKLHSGEKPFKCHLCNYACRRRD	2
HDKLHSGEKPFKCHLCNYACRRRD	2.5

Variant	protein stability index
HQKLHSGEKPFKCHLCNYACRRRD	2.32
HKKLHSGEKPFKCHLCNYACRRRD	1.86
HRKLHSGEKPFKCHLCNYACRRRD	1.96
HSKLHSGEKPFKCHLCNYACRRRD	1.76
HWKLHSGEKPFKCHLCNYACRRRD	2.22
HCKLHSGEKPFKCHLCNYACRRRD	2.44
HHKLHSGEKPFKCHLCNYACRRRD	2.3
HVKLHSGEKPFKCHLCNYACRRRD	1.47
HTKLHSGEKPFKCHLCNYACRRRD	2.02
HFKLHSGEKPFKCHLCNYACRRRD	2.27
HIKLHSGEKYFKCHLCNYACRRRD	2.88
HIKLHSGEKEFKCHLCNYACRRRD	1.07
HIKLHSGEKTFKCHLCNYACRRRD	1.84
HIKLHSGEKFFKCHLCNYACRRRD	1.91
HIKLHSGEKMFKCHLCNYACRRRD	1.58
HIKLHSGEKAFKCHLCNYACRRRD	1.55
HIKLHSGEKCFKCHLCNYACRRRD	1.76
HIKLHSGEKVFKCHLCNYACRRRD	2.26
HIKLHSGEKWFKCHLCNYACRRRD	2.31
HIKLHSGEKKFKCHLCNYACRRRD	2.73
HIKLHSGEKNFKCHLCNYACRRRD	2.16
HIKLHSGEKSFKCHLCNYACRRRD	1.75
HIKLHSGEKLFKCHLCNYACRRRD	1.76
HIKLHSGEKIFKCHLCNYACRRRD	2.19

Variant	protein stability index
HIKLHSGEKDFKCHLCNYACRRRD	2.14
HIKLHSGEKHFKCHLCNYACRRRD	1.67
HIKLHSGEKQFKCHLCNYACRRRD	1.43
HIKLHSGEKGFKCHLCNYACRRRD	1.93
HIKLHSGEKRFKCHLCNYACRRRD	1.74
HIKLHYGEKPFKCHLCNYACRRRD	1.79
HIKLHIGEKPFKCHLCNYACRRRD	2.38
HIKLHRGEKPFKCHLCNYACRRRD	2.24
HIKLHPGEKPFKCHLCNYACRRRD	2.02
HIKLHFGEKPFKCHLCNYACRRRD	2.19
HIKLHMGEKPFKCHLCNYACRRRD	2.13
HIKLHNGEKPFKCHLCNYACRRRD	3.35
HIKLHTGEKPFKCHLCNYACRRRD	1.99
HIKLHEGEKPFKCHLCNYACRRRD	3.3
HIKLHAGEKPFKCHLCNYACRRRD	1.65
HIKLHLGEKPFKCHLCNYACRRRD	1.93
HIKLHHGEKPFKCHLCNYACRRRD	1.96
HIKLHGGEKPFKCHLCNYACRRRD	2.02
HIKLHKGEKPFKCHLCNYACRRRD	1.82
HIKLHQGEKPFKCHLCNYACRRRD	1.88
HIKLHVGEKPFKCHLCNYACRRRD	1.16
HIKLHWGEKPFKCHLCNYACRRRD	2.93
HIKLHCGEKPFKCHLCNYACRRRD	1.51
HIKLHDGEKPFKCHLCNYACRRRD	1.97

Variant	protein stability index
HIHLHSGEKPFKCHLCNYACRRRD	2.44
HIELHSGEKPFKCHLCNYACRRRD	1.8
HIMLHSGEKPFKCHLCNYACRRRD	1.51
HIPLHSGEKPFKCHLCNYACRRRD	3.67
HISLHSGEKPFKCHLCNYACRRRD	1.91
HIWLHSGEKPFKCHLCNYACRRRD	2.73
HIVLHSGEKPFKCHLCNYACRRRD	1.83
HITLHSGEKPFKCHLCNYACRRRD	1.9
HIFLHSGEKPFKCHLCNYACRRRD	2.38
HIILHSGEKPFKCHLCNYACRRRD	1.61
HIALHSGEKPFKCHLCNYACRRRD	1.58
HIYLHSGEKPFKCHLCNYACRRRD	1.69
HIGLHSGEKPFKCHLCNYACRRRD	2.38
HIDLHSGEKPFKCHLCNYACRRRD	1.95
HINLHSGEKPFKCHLCNYACRRRD	2.11
HICLHSGEKPFKCHLCNYACRRRD	2.56
HILLHSGEKPFKCHLCNYACRRRD	1.99
HIQLHSGEKPFKCHLCNYACRRRD	2.03
HIRLHSGEKPFKCHLCNYACRRRD	1.88
HIKLHSGEKPAKCHLCNYACRRRD	2.75
